# Measurements reported in article PMC8805217, “Crystal structure of a hypothetical protein from Giardia lamblia” (Acta Crystallographica. Section F, Structural Biology …, 2022).
# B1: hypothetical protein from Giardia lamblia (GilaA.00312.a) (natural protein)
# chain: GPGSMIYGILSKNLGMPTPTFLVCPDVVKFENVGQIAVVNGMVYLGGSVGIDKSGTLHKGLEEQTRQTFDNIRKCLEYANSGLDYIVSLNIFLSTSLSDSEEARFNELYREVFCVPATRPCRCCVRAQLQEGLLVEVVNVVAAQK
# notes: hypothetical protein of Giardia lamblia GL50803_14299, 141 amino acids, amino acids 1-141 of UniProt A8BD71; Homotrimer in the crystal structure (PDB 3i3f); also called hypothetical G. lamblia protein; GL50803_14299; source: E. coli BL21(DE3)R3 Rosetta, purified (IMAC, 3C cleavage of the His tag, reverse IMAC, SEC); not shown: 6xHis, N-terminal, cleaved
# Biological target: the molecule itself
# Experiment: crystal structure; X-ray, molecular replacement, 1.35 Å; sitting-drop vapor diffusion at 290 K, protein in 20 mM HEPES pH 7.0, 300 mM NaCl, 5% glycerol, 1 mM TCEP; reservoir 100 mM Tris pH 5.5, 25% PEG 3350, 200 mM ammonium acetate
protein,measurement,value
B1,stoichiometry N,3
